B1: L1-44: SU-responsive TetR(B) variant, library L1 hit, SEQ ID NO: 13 (protein)
chain: MGSRLDKSKVINSALELLNEVGIEGLTTRKLAQKLGVEQPTLYWHVKNKRALLDALAIEMLDRHATHFCPLEGESWQDFLRNNAKSYRCALLSHRDGAKVYLGTAVTEKQYETAENQLAFLCQQGFSLENALYAVKAVAGFTLGCVLWDQESQVAKEERETPTTASMPPLLRQAVELADHQGAEPAFLFGLELIICGLEKQLKCESGS
modifications: Sulfonylurea responsive repressor L1-44
B2: L1-28: SU-responsive TetR(B) variant, library L1 hit (protein)
chain: MGSRLDKSKVINSALELLNEVGIEGLTTRKLAQKLGVEQPTLYWHVKNKRALLDALAIEMLDRHATHFCPLEGESWQDFLRNNAKSMRCALLSHRDGAKVWLGTAWTEKQYETPENVLAFLCQQGFSLENALYASRAVVTFTLGCVLTDQEKQVAKEERETPTTDSMPPLLRQAWELLDHQGAEPAFLFGLELIICGLEKQLKCESGS
modifications: Sulfonylurea responsive repressor L1-28
B3: L1-38: SU-responsive TetR(B) variant, library L1 hit (protein)
chain: MGSRLDKSKVINSALELLNEVGIEGLTTRKLAQKLGVEQPTLYWHVKNKRALLDALAIEMADRHHTHFCPLEGESWQDFLRNNAKSMRCALLSHRDGAKVWLGTAWTEKQYETTENMLAFLCQQGFSLENALYAWRAVTMFTLGCVLRDQEWQVAKEERETPTTDSMPPLLRQALELGDHQGAEPAFLFGLELIICGLEKQLKCESGS
modifications: Sulfonylurea responsive repressor L1-38
B4: L1-22: SU-responsive TetR(B) variant, library L1 hit, SEQ ID NO: 7 (protein)
chain: MGSRLDKSKVINSALELLNEVGIEGLTTRKLAQKLGVEQPTLYWHVKNKRALLDALAIEMMDRHHTHFCPLEGESWQDFLRNTAKSYRCALLSHRDGAKVCLGTAITEKQYETKENNLAFLCQQGFSLENALYARQAVRVFTLGCVLFDQEMQVAKEERETPTTDSMPPLLRQASELLDHQGAEPAFLFGLELIICGLEKQLKSESGS
modifications: Sulfornylurea responsive repressor L1-22
B5: L1-29: SU-responsive TetR(B) variant, library L1 hit, SEQ ID NO: 10 (protein)
chain: MGSRLDKSKVINSALELLNEVGIEGLTTRKLAQKLGVEQPTLYWHVKNKRALLDALAIEMMDRHQTHFCPLEGESWQDFLRNTAKSMRCALLSHRDGAKVWLGTRWTEKQYETPENMLAFLCQQGFSLENALYAWSAVCNFTLGCVLSDQERQVAKEERETPTTDSMPPLLRQAWELSDHQGAEPAFLFGLELIICGLEKQLKCESGS
modifications: Sulfonylurea responsive repressor L1-29
B6: L1-9: SU-responsive TetR(B) variant, library L1 hit (protein)
chain: MGSRLDKSKVINSALELLNEVGIEGLTTRKLAQKLGVEQPTLYWHVKNKRALLDALAIEMLDRHATHFCPLEGESWQDFLRNNAKSMRCALLSHRDGAKVCLGTGFTEKQYETAENSLAFLCQQGFSLENALYAMQAVCIFTLGCVLLDQELQVAKEERETPTTDSMPPLLRQALELKDHQGAEPAFLFGLELIICGLEKQLKCESGS
modifications: Sulfonylurea responsive repressor L1-09
B7: L1-31: SU-responsive TetR(B) variant, library L1 hit (protein)
chain: MGSRLDKSKVINSALELLNEVGIEGLTTRKLAQKLGVEQPTLYWHVKNKRALLDALAIEMLDRHATHFCPLEGESWQDFLRNNAKSMRCALLSHRDGAKVMLGTRATEKQYETVENRLAFLCQQGFSLENALYAVRAVHWFTLGCVLIDQEMQVAKEERETPTTDSMPPLLRQAYELYDHQGAEPAFLFGLELIICGLEKQLKCESGS
modifications: Sulfonylurea responsive repressor L1-31
B8: L1-2: SU-responsive TetR(B) ligand binding domain variant, library L1 hit, SEQ ID NO: 3 (protein)
chain: MGSRLDKSKVINSALELLNEVGIEGLTTRKLAQKLGVEQPTLYWHVKNKRALLDALAIEMLDRHATHFCPLEGESWQDFLRNNAKSFRCALLSHRDGAKVCLGTAVTEKQYETMENILAFLCQQGFSLENALYARRAVIAFTLGCVLWDQEYQVAKEERETPTTDSMPPLLRQARELIDHQGAEPAFLFGLELIICGLEKQLKCESGS
modifications: Sulfonylurea responsive repressor L1-02
B9: L1-24: SU-responsive TetR(B) variant, library L1 hit (protein)
chain: MGSRLDKSKVINSALELLNEVGIEGLTTRKLAQKLGVEQPTLYWHVKNKRALLDALAIEMLDRHNTHFCPLEGESWQDFLRNSAKSMRCALLSHRDGAKVLLGTAVTEKQYETTENSLAFLCQQGFSLENALYAIRAVRTFTLGCVLVDQERQVAKEERETPTTDSMPPLLRQAKELLDHQGAEPAFLFGLELIICGLEKQLKCESGS
modifications: Sulfonylurea responsive repressor L1-24

tested on: lacZ under control of the tetA promoter (PtetA) in E. coli KM3; type: cell-based; conditions: Table 4; chlorimuron 20 ppm; 48 hrs at 30° C.

First: B1
Second: B2
The “relative β-galactosidase activity, inducer Ci” value of the first is lower: 6.7 for the first, 14.6 for the second.

Compared with B3, B4 is lower in “relative β-galactosidase activity, inducer Ci” value: 15.3 for the first, 10.4 for the second.

Going from B5 to B6, the “relative β-galactosidase activity, inducer Ci” value falls from 20.9 to 9.8.

First: B7
Second: B8
The “relative β-galactosidase activity, inducer Ci” value of the first is lower: 1.1 for the first, 13.6 for the second.

With B9 the “relative β-galactosidase activity, inducer Ci” value was 22.1.

same assay, conditions: Table 4; chlorsulfuron 20 ppm; 48 hrs at 30° C.

First: B1
Second: B2
The “relative β-galactosidase activity, inducer Cs” value of the first is higher: 12.0 for the first, 5.8 for the second.

First: B3
Second: B4
The “relative β-galactosidase activity, inducer Cs” value of the first is higher: 14.0 for the first, 0.2 for the second.

Going from B5 to B6, the “relative β-galactosidase activity, inducer Cs” value rises from 15.8 to 23.6.

Compared with B7, B8 is higher in “relative β-galactosidase activity, inducer Cs” value: 1.4 for the first, 4.1 for the second.

For B9, the “relative β-galactosidase activity, inducer Cs” value was 3.3.

same assay, conditions: Table 4; ethametsulfuron 20 ppm; 48 hrs at 30° C.

Compared with B1, B2 is lower in “relative β-galactosidase activity, inducer Es” value: 2.4 for the first, 0.8 for the second.

Compared with B3, B4 is lower in “relative β-galactosidase activity, inducer Es” value: 14.8 for the first, 0.3 for the second.

Going from B5 to B6, the “relative β-galactosidase activity, inducer Es” value rises from 1.7 to 11.8.

Compared with B7, B8 is lower in “relative β-galactosidase activity, inducer Es” value: 13.7 for the first, 5.8 for the second.

B9 was tested, and the “relative β-galactosidase activity, inducer Es” value was 0.2.

same assay, conditions: Table 4; metsulfuron 20 ppm; 48 hrs at 30° C.

First: B1
Second: B2
The “relative β-galactosidase activity, inducer Ms” value of the first is lower: 2.9 for the first, 18.8 for the second.

Going from B3 to B4, the “relative β-galactosidase activity, inducer Ms” value falls from 14.7 to 0.1.

Going from B5 to B6, the “relative β-galactosidase activity, inducer Ms” value falls from 13.5 to 1.2.

First: B7
Second: B8
The “relative β-galactosidase activity, inducer Ms” value of the first is lower: 0.5 for the first, 1.9 for the second.

With B9 the “relative β-galactosidase activity, inducer Ms” value was 0.4.

same assay, conditions: Table 4; nicosulfuron 20 ppm; 48 hrs at 30° C.

Compared with B1, B2 is lower in “relative β-galactosidase activity, inducer Ns” value: 0.4 for the first, 0.1 for the second.

Compared with B3, B4 is lower in “relative β-galactosidase activity, inducer Ns” value: 8.7 for the first, 0.2 for the second.

Compared with B5, B6 is higher in “relative β-galactosidase activity, inducer Ns” value: 0.1 for the first, 0.3 for the second.

Going from B7 to B8, the “relative β-galactosidase activity, inducer Ns” value rises from 0.5 to 1.3.

For B9, the “relative β-galactosidase activity, inducer Ns” value was 0.3.

same assay, conditions: Table 4; rimsulfuron 20 ppm; 48 hrs at 30° C.

Compared with B1, B2 is lower in “relative β-galactosidase activity, inducer Rs” value: 0.3 for the first, 0.2 for the second.

Compared with B3, B4 is lower in “relative β-galactosidase activity, inducer Rs” value: 9.5 for the first, 0.1 for the second.

Compared with B5, B6 is higher in “relative β-galactosidase activity, inducer Rs” value: 0.1 for the first, 0.4 for the second.

Going from B7 to B8, the “relative β-galactosidase activity, inducer Rs” value rises from 0.4 to 1.3.

In the case of B9, the “relative β-galactosidase activity, inducer Rs” value is reported as 0.3.

same assay, conditions: Table 4; sulfometuron 20 ppm; 48 hrs at 30° C.

First: B1
Second: B2
The “relative β-galactosidase activity, inducer Sm” value of the first is lower: 0.4 for the first, 1.1 for the second.

Compared with B3, B4 is lower in “relative β-galactosidase activity, inducer Sm” value: 18.3 for the first, 17.2 for the second.

First: B5
Second: B6
The “relative β-galactosidase activity, inducer Sm” value of the first is higher: 2.7 for the first, 0.6 for the second.

First: B7
Second: B8
The “relative β-galactosidase activity, inducer Sm” value of the first is lower: 0.9 for the first, 4.7 for the second.

B9 was tested, and the “relative β-galactosidase activity, inducer Sm” value was 3.1.

same assay, conditions: Table 4; thifensulfuron 20 ppm; 48 hrs at 30° C.

Going from B1 to B2, the “relative β-galactosidase activity, inducer Ts” value falls from 1.9 to 0.1.

Going from B3 to B4, the “relative β-galactosidase activity, inducer Ts” value falls from 16.7 to 0.0.

First: B5
Second: B6
The “relative β-galactosidase activity, inducer Ts” value of the first is lower: 0.0 for the first, 1.1 for the second.

Compared with B7, B8 is higher in “relative β-galactosidase activity, inducer Ts” value: 0.9 for the first, 1.6 for the second.

For B9, the “relative β-galactosidase activity, inducer Ts” value was 0.3.

same assay, conditions: Table 4; tribenuron 20 ppm; 48 hrs at 30° C.

First: B1
Second: B2
The “relative β-galactosidase activity, inducer Tb” value of the first is higher: 0.4 for the first, 0.3 for the second.

Compared with B3, B4 is lower in “relative β-galactosidase activity, inducer Tb” value: 15.8 for the first, 0.3 for the second.

Compared with B5, B6 is higher in “relative β-galactosidase activity, inducer Tb” value: 0.3 for the first, 0.4 for the second.

First: B7
Second: B8
The “relative β-galactosidase activity, inducer Tb” value of the first is lower: 0.1 for the first, 1.7 for the second.

For B9, the “relative β-galactosidase activity, inducer Tb” value was 1.6.

same assay, conditions: Table 8; library L2 parents and hits

B1 was tested, and the inducer preference was 9 (weak).
B5 was tested, and the inducer preference was 9 (weak).
For B6, the inducer preference was 4, 9 (weak).

B4 showed an inducer preference of 3.

same assay, conditions: Table 10; 48 hours at 30° C.

Compared with B1, B4 is lower in “relative β-galactosidase activity, No inducer” value: 0.6 for the first, 0.2 for the second.

First: B5
Second: B6
The “relative β-galactosidase activity, No inducer” value of the first is lower: 0.1 for the first, 0.9 for the second.

same assay, conditions: Table 10; ethametsulfuron 2 ppm; 48 hours at 30° C.

With B6 the “relative β-galactosidase activity, inducer Es” value was 14.8.

same assay, conditions: first round hits, 20 ppm inducer (Table 4)

In the case of B1, the “activity on sulfonylurea inducers” value is reported as “moderate activity on metsulfuron, ethametsulfuron and chlorsulfuron”.
With B4 the “activity on sulfonylurea inducers” value was “strong sulfometuron activity”.
B5 was tested, and the “activity on sulfonylurea inducers” value was “moderate metsulfuron activity”.
For B6, the “activity on sulfonylurea inducers” value was “strong activity on both ethametsulfuron and chlorsulfuron”.

same assay, conditions: library L2 retest, inducers at 2 ppm

In the case of B6, the “induction response and background” value is reported as “sensitivity to 2 ppm Es”.

Reference: patent US9206432B2, “Sulfonylurea-responsive repressor proteins” (priority 2008, dated 2015)
